The text below walks through data of PMC3984902 (Oncogene, 2013).

The experiment concerns the target HSP90β (purified recombinant) (UniProt P08238 1-724). The experiment in a line: ITC. (Isothermal titration calorimetry measures the heat released or taken up as one component is titrated into another.)

Usually Kd stands for the free concentration of one partner at which half of the binding sites on the other are occupied at equilibrium, for simple one-to-one binding.

HSP90β (purified recombinant), sequence (P08238 whole entry): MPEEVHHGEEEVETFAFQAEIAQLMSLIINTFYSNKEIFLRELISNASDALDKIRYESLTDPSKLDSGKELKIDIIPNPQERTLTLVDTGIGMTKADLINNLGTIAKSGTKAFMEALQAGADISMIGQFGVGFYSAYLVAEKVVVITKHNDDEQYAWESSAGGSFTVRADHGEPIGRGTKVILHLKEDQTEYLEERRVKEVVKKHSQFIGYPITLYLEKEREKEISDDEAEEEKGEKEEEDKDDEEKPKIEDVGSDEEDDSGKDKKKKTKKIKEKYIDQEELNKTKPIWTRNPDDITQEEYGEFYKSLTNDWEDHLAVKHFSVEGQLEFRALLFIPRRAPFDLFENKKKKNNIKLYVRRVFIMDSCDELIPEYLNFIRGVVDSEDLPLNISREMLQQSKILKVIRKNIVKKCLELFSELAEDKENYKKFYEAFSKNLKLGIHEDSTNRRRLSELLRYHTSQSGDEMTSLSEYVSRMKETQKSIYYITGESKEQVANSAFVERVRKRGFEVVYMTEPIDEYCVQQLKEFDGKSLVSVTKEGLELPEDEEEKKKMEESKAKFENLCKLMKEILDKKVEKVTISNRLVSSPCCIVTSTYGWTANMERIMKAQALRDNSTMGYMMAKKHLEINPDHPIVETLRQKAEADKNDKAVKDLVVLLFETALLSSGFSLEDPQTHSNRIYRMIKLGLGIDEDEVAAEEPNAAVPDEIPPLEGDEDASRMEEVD

B1: FLAG-tagged wildtype CDC37 (purified recombinant) (natural protein)
chain: MVDYSVWDHIEVSDDEDETHPNIDTASLFRWRHQARVERMEQFQKEKEELDRGCRECKRKVAECQRKLKELEVAEGGKAELERLQAEAQQLRKEERSWEQKLEEMRKKEKSMPWNVDTLSKDGFSKSMVNTKPEKTEEDSEEVREQKHKTFVEKYEKQIKHFGMLRRWDDSQKYLSDNVHLVCEETANYLVIWCIDLEVEEKCALMEQVAHQTIVMQFILELAKSLKVDPRACFRQFFTKIKTADRQYMEGFNDELEAFKERVRGRAKLRIEKAMKEYEEEERKKRLGPGGLDPVEVYESLPEELQKCFDVKDVQMLQDAISKMDPTDAKYHMQRCIDSGLWVPNSKASEAKEGEEAGPGDPLLEAVPKTGDEKDVSV
Regarding B1, the equilibrium dissociation constant (Kd) was 2.26 µM.

B2: FLAG-tagged CDC37 M164A (purified recombinant) (natural protein)
chain: MVDYSVWDHIEVSDDEDETHPNIDTASLFRWRHQARVERMEQFQKEKEELDRGCRECKRKVAECQRKLKELEVAEGGKAELERLQAEAQQLRKEERSWEQKLEEMRKKEKSMPWNVDTLSKDGFSKSMVNTKPEKTEEDSEEVREQKHKTFVEKYEKQIKHFGALRRWDDSQKYLSDNVHLVCEETANYLVIWCIDLEVEEKCALMEQVAHQTIVMQFILELAKSLKVDPRACFRQFFTKIKTADRQYMEGFNDELEAFKERVRGRAKLRIEKAMKEYEEEERKKRLGPGGLDPVEVYESLPEELQKCFDVKDVQMLQDAISKMDPTDAKYHMQRCIDSGLWVPNSKASEAKEGEEAGPGDPLLEAVPKTGDEKDVSV
As for B2, the Kd worked out at 7.19 µM.
